{"source": "patent US20200216495A1", "about": "(ADRX, published 2020)", "note": "Values joined by “and” are separate entries in the source; they are usually repeats but may differ in a detail not shown here. Identical values can stand only once. Square brackets hold non-standard residues; d marks the D form. Ends that are not written are not given here. dMet(O) = CS(=O)CC[C@@H](N)C(=O)O; dCit = NC(=O)NCCC[C@@H](N)C(=O)O; dNle = CCCC[C@@H](N)C(=O)O", "data": [{"biological_target": "Tau40 P301L protein (human)", "test": "cell-based or functional assay", "values": [{"binder": "[dL][dK][dI][dR][dI][dW][dY][dH]", "note": "[lkiriwyh (PEPTIDE ID NO: 206)]", "IC50, Tau40 assay (ThT)": "0.78 µM"}, {"binder": "[dL][dK][dI][dW][dI][dH][dY][dH]", "note": "[lkiwihyh (PEPTIDE ID NO: 299)]", "IC50, Tau40 assay (ThT)": "1.91 µM"}, {"binder": "[dL][dA][dI][dR][dI][dH][dY][dH]", "note": "[lairihyh (PEPTIDE ID NO: 309)]", "IC50, Tau40 assay (ThT)": "2.19 µM"}, {"binder": "[dW][dR][dL][dK][dV][dR][dA]", "note": "[wrlkvra (PEPTIDE ID NO: 323)]", "IC50, Tau40 assay (ThT)": "2.61 µM"}, {"binder": "[dY][dH][dL][dK][dL][dH][dY][dW]", "note": "[yhlklhyw (PEPTIDE ID NO: 440)]", "IC50, Tau40 assay (ThT)": "2.17 µM"}, {"binder": "[dK][dI][dK][dI][dK][dW]", "note": "[kikikw (PEPTIDE ID NO: 66)]", "IC50, Tau40 assay (ThT)": "1.87 µM"}, {"binder": "[dL][dK][dI][dR][dI][dE][dY]", "note": "[lkiriey (PEPTIDE ID NO: 324)]", "IC50, Tau40 assay (ThT)": "2.63 µM"}, {"binder": "[dW][dE][dL][dR][dI][dH][dW]", "note": "[welrihw (PEPTIDE ID NO: 322)]", "IC50, Tau40 assay (ThT)": "2.58 µM"}, {"binder": "[dL][dK][dI][dNle][dI][dH][dY]", "note": "[lkiuihy (PEPTIDE ID NO: 321)]", "IC50, Tau40 assay (ThT)": "2.54 µM"}, {"binder": "[dL][dR][dV][dQ][dV][dR][dL]", "note": "[lrvqvrl (PEPTIDE ID NO: 441)]", "IC50, Tau40 assay (ThT)": "2.13 µM"}, {"binder": "[dF][dR][dL][dK][dV][dR][dW][dF]", "note": "[frlkvrwf (PEPTIDE ID NO: 4)]", "IC50, Tau40 assay (ThT)": "1.87 µM and 1.91 µM and 0.87 µM"}, {"binder": "[dL][dK][dI][dM][dI][dH][dY]", "note": "[lkimihy (PEPTIDE ID NO: 317)]", "IC50, Tau40 assay (ThT)": "2.44 µM"}, {"binder": "[dW][dR][dL][dK][dV][dN][dW]", "note": "[wrlkvnw (PEPTIDE ID NO: 296)]", "IC50, Tau40 assay (ThT)": "1.87 µM"}, {"binder": "[dF][dE][dL][dH][dI][dK][dW][dH]", "note": "[felhikwh (PEPTIDE ID NO: 134)]", "IC50, Tau40 assay (ThT)": "2.34 µM"}, {"binder": "[dW][dQ][dL][dK][dV][dQ][dW]", "note": "[wqlkvqw (PEPTIDE ID NO: 319)]", "IC50, Tau40 assay (ThT)": "2.47 µM"}, {"binder": "[dL][dK][dI][dR][dI][dE][dH][dY]", "note": "[lkiriehy (PEPTIDE ID NO: 155)]", "IC50, Tau40 assay (ThT)": "2.45 µM"}, {"binder": "[dF][dE][dI][dR][dI][dH][dY][dH]", "note": "[feirihyh (PEPTIDE ID NO: 442)]", "IC50, Tau40 assay (ThT)": "2.59 µM"}, {"binder": "[dR][dI][dK][dL][dR][dW]", "note": "[riklrw (PEPTIDE ID NO: 24)]", "IC50, Tau40 assay (ThT)": "2.03 µM and 2.06 µM"}, {"binder": "[dW][dR][dL][dE][dV][dR][dW]", "note": "[wrlevrw (PEPTIDE ID NO: 315)]", "IC50, Tau40 assay (ThT)": "2.4 µM"}, {"binder": "[dL][dK][dL][dK][dI][dK][dH][dF]", "note": "[lklkikhf (PEPTIDE ID NO: 154)]", "IC50, Tau40 assay (ThT)": "2.21 µM"}, {"binder": "[dF][dR][dI][dR][dI][dH][dH][dF]", "note": "[fririhhf (PEPTIDE ID NO: 113)]", "IC50, Tau40 assay (ThT)": "0.74 µM and 0.81 µM"}, {"binder": "[dL][dK][dI][dF][dI][dY][dY][dH]", "note": "[lkifiyyh (PEPTIDE ID NO: 302)]", "IC50, Tau40 assay (ThT)": "1.99 µM"}, {"binder": "[dW][dT][dL][dR][dI][dH][dW]", "note": "[wtlrihw (PEPTIDE ID NO: 305)]", "IC50, Tau40 assay (ThT)": "2.07 µM"}, {"binder": "[dW][dK][dV][dQ][dV][dR][dL][dW]", "note": "[wkvqvrlw (PEPTIDE ID NO: 2)]", "IC50, Tau40 assay (ThT)": "2.26 µM and 0.95 µM and 2.39 µM and 0.82 µM"}, {"binder": "[dF][dR][dV][dK][dI][dQ][dH][dW]", "note": "[frvkiqhw (PEPTIDE ID NO: 120)]", "IC50, Tau40 assay (ThT)": "2.49 µM"}, {"binder": "[dW][dR][dL][dK][dV][dE][dW][dW]", "note": "[wrlkveww (PEPTIDE ID NO: 313)]", "IC50, Tau40 assay (ThT)": "2.3 µM"}, {"binder": "[dL][dK][dI][dR][dI][dMet(O)][dY]", "note": "[lkirixy (PEPTIDE ID NO: 297)]", "IC50, Tau40 assay (ThT)": "1.88 µM"}, {"binder": "[dR][dI][dR][dW][dY][dW][dK]", "note": "[rirwywk (PEPTIDE ID NO: 311)]", "IC50, Tau40 assay (ThT)": "2.27 µM"}, {"binder": "[dF][dH][dI][dH][dI][dK][dF][dH]", "note": "[fhihikfh (PEPTIDE ID NO: 437)]", "IC50, Tau40 assay (ThT)": "2.02 µM"}, {"binder": "[dL][dK][dL][dE][dI][dR][dW][dH]", "note": "[lkleirwh (PEPTIDE ID NO: 429)]", "IC50, Tau40 assay (ThT)": "2.42 µM"}, {"binder": "[dW][dR][dI][dW][dI][dR][dY][dW]", "note": "[wriwiryw (PEPTIDE ID NO: 105)]", "IC50, Tau40 assay (ThT)": "2.38 µM and 2.61 µM"}, {"binder": "[dW][dM][dL][dR][dI][dH][dW]", "note": "[wmlrihw (PEPTIDE ID NO: 304)]", "IC50, Tau40 assay (ThT)": "2.07 µM"}, {"binder": "[dK][dW][dR][dL][dK][dV][dR][dW]", "note": "[kwrlkvrw (PEPTIDE ID NO: 207)]", "IC50, Tau40 assay (ThT)": "0.78 µM"}, {"binder": "[dW][dR][dI][dR][dL][dR][dY][dW]", "note": "[wrirlryw (PEPTIDE ID NO: 104)]", "IC50, Tau40 assay (ThT)": "1.91 µM and 2.45 µM"}, {"binder": "[dW][dR][dL][dA][dV][dR][dW]", "note": "[wrlavrw (PEPTIDE ID NO: 301)]", "IC50, Tau40 assay (ThT)": "1.94 µM"}, {"binder": "[dR][dI][dR][dW][dR][dW]", "note": "[rirwrw (PEPTIDE ID NO: 50)]", "IC50, Tau40 assay (ThT)": "2.02 µM"}, {"binder": "[dW][dR][dL][dR][dI][dT][dW]", "note": "[wrlritw (PEPTIDE ID NO: 314)]", "IC50, Tau40 assay (ThT)": "2.36 µM"}, {"binder": "[dW][dR][dL][dR][dI][dW][dW]", "note": "[wrlriww (PEPTIDE ID NO: 103)]", "IC50, Tau40 assay (ThT)": "1.98 µM"}, {"binder": "[dW][dR][dL][dW][dV][dR][dW][dW]", "note": "[wrlwvrww (PEPTIDE ID NO: 310)]", "IC50, Tau40 assay (ThT)": "2.23 µM"}, {"binder": "[dR][dL][dR][dI][dH][dW][dW]", "note": "[rlrihww (PEPTIDE ID NO: 164)]", "IC50, Tau40 assay (ThT)": "2.05 µM"}, {"binder": "[dH][dY][dH][dI][dR][dI][dK][dL]", "note": "[hyhirikl (PEPTIDE ID NO: 300)]", "IC50, Tau40 assay (ThT)": "1.94 µM"}, {"binder": "[dP][dR][dI][dR][dL][dH][dW]", "note": "[prirlhw (PEPTIDE ID NO: 33)]", "IC50, Tau40 assay (ThT)": "1.94 µM and 1.95 µM"}, {"binder": "[dW][dR][dL][dN][dV][dR][dW]", "note": "[wrlnvrw (PEPTIDE ID NO: 306)]", "IC50, Tau40 assay (ThT)": "2.07 µM"}, {"binder": "[dR][dL][dK][dV][dR][dW][dW]", "note": "[rlkvrww (PEPTIDE ID NO: 298)]", "IC50, Tau40 assay (ThT)": "1.9 µM"}, {"binder": "[dW][dL][dR][dV][dQ][dV][dK][dW]", "note": "[wlrvqvkw (PEPTIDE ID NO: 111)]", "IC50, Tau40 assay (ThT)": "2.18 µM and 2.21 µM"}, {"binder": "[dW][dW][dL][dK][dL][dR][dW][dW]", "note": "[wwlklrww (PEPTIDE ID NO: 81)]", "IC50, Tau40 assay (ThT)": "2.52 µM"}, {"binder": "[dF][dE][dL][dR][dL][dH][dW][dH]", "note": "[felrlhwh (PEPTIDE ID NO: 133)]", "IC50, Tau40 assay (ThT)": "2.11 µM and 2.41 µM"}, {"binder": "[dW][dI][dK][dI][dW][dR]", "note": "[wikiwr (PEPTIDE ID NO: 29)]", "IC50, Tau40 assay (ThT)": "2.02 µM"}, {"binder": "[dV][dR][dW][dW][dW][dR][dL][dK]", "note": "[vrwwwrlk (PEPTIDE ID NO: 204)]", "IC50, Tau40 assay (ThT)": "0.74 µM"}, {"binder": "[dL][dK][dI][dCit][dI][dH][dY]", "note": "[lkizihy (PEPTIDE ID NO: 320)]", "IC50, Tau40 assay (ThT)": "2.47 µM"}, {"binder": "[dL][dK][dI][dR][dI][dL][dY][dH]", "note": "[lkirilyh (PEPTIDE ID NO: 208)]", "IC50, Tau40 assay (ThT)": "0.79 µM"}, {"binder": "[dL][dK][dI][dR][dI][dH][dE][dH]", "note": "[lkiriheh (PEPTIDE ID NO: 318)]", "IC50, Tau40 assay (ThT)": "2.45 µM"}, {"binder": "[dL][dE][dI][dR][dI][dH][dY]", "note": "[leirihy (PEPTIDE ID NO: 316)]", "IC50, Tau40 assay (ThT)": "2.43 µM"}, {"binder": "[dF][dK][dI][dR][dI][dH][dH][dY]", "note": "[fkirihhy (PEPTIDE ID NO: 122)]", "IC50, Tau40 assay (ThT)": "1.89 µM and 0.91 µM"}, {"binder": "[dA][dR][dL][dR][dI][dH][dW]", "note": "[arlrihw (PEPTIDE ID NO: 312)]", "IC50, Tau40 assay (ThT)": "2.28 µM"}, {"binder": "[dF][dR][dI][dK][dI][dR][dW]", "note": "[frikirw (PEPTIDE ID NO: 61)]", "IC50, Tau40 assay (ThT)": "2.56 µM and 2.57 µM"}, {"binder": "[dT][dW][dR][dL][dK][dV][dR][dW]", "note": "[twrlkvrw (PEPTIDE ID NO: 205)]", "IC50, Tau40 assay (ThT)": "0.75 µM"}, {"binder": "[dW][dK][dL][dK][dL][dR][dW][dW]", "note": "[wklklrww (PEPTIDE ID NO: 13)]", "IC50, Tau40 assay (ThT)": "2.56 µM"}, {"binder": "[dR][dI][dR][dL][dR][dW]", "note": "[rirlrw (PEPTIDE ID NO: 38)]", "IC50, Tau40 assay (ThT)": "2.04 µM and 2.2 µM"}, {"binder": "[dL][dK][dI][dR][dI][dA][dY][dH]", "note": "[lkiriayh (PEPTIDE ID NO: 303)]", "IC50, Tau40 assay (ThT)": "2.03 µM"}, {"binder": "[dF][dH][dI][dR][dL][dE][dW][dH]", "note": "[fhirlewh (PEPTIDE ID NO: 139)]", "IC50, Tau40 assay (ThT)": "1.86 µM and 2.19 µM"}]}]}
